From article PMC3671583

B1: β-RAR DNA (dsDNA)
DNA 1: CACCGAAAGTTCACTC
DNA 2: GAGTGAACTTTCGGTG
B2: random DNA (dsDNA)
DNA 1: TGTTTCTGCCTCTGT
DNA 2: ACAGAGGCAGAAACA

Experiments:
Test in all cases: fluorescence anisotropy
NZF-1-F2F3 = NZF-1-F2F3 (Rattus norvegicus, UniProt P70475 487-584)
CCFHC NZF-1-F2F3 = CCFHC NZF-1-F2F3 (Rattus norvegicus, UniProt P70475 487-584, H515F;H559F)
CCHFC NZF-1-F2F3 = CCHFC NZF-1-F2F3 (Rattus norvegicus, UniProt P70475 487-584, H522A;H523F;H567F)
MyT1-F2F3 = MyT1-F2F3 (Rattus norvegicus, UniProt D3ZYT5 425-521)

CCFHC NZF-1-F2F3, sequence (P70475 487-584 H515F/H559F): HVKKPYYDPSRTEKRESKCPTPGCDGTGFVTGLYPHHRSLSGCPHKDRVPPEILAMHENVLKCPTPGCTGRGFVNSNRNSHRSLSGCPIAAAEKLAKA
CCHFC NZF-1-F2F3, sequence (P70475 487-584 H522A/H523F/H567F): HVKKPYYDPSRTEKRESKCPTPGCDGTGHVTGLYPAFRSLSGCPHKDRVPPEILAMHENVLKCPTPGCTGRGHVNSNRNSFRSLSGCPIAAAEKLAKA
NZF-1-F2F3, sequence (P70475 487-584): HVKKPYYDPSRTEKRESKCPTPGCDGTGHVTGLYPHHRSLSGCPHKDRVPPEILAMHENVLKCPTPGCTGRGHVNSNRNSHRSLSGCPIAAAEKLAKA

Binder | Kd (NZF-1-F2F3) [nM] | binding result (CCFHC NZF-1-F2F3) | binding result (CCHFC NZF-1-F2F3) | Kd (MyT1-F2F3) [nM] | binding result (NZF-1-F2F3)
B1 | 14 | no binding | no binding | 1300 | 
B2 |  | no binding | no binding | 910 | no binding
